Target: Filamentous actin, pre-formed actin filaments derived from rabbit skeletal muscle (rabbit, UniProt P68135 1-377)
Assay: co-sedimentation; F-actin spin-down; constant 0.5 μM F-actin with varying concentrations of PAM-CD; PAM-CD in supernatants and pellets by electrophoretic analysis; Scatchard analysis of three experiments
Details: both partners purified

Kd: 600 nM
B1: Peptidylglycine α-amidating monooxygenase cytosolic C-terminal domain, recombinant rat PAM(898–976) (domain or fragment)
chain: FGDHDRKLESSSGRVLGRFRGKGSGGLNLGNFFASRKGYSRKGFDRVSTEGSDQEKDEDDGTESEEEYSAPLPKPAPSS
notes: Peptidylglycine alpha-amidating monooxygenase (PAM), rat, cytosolic C-terminal domain, residues 898-976; no tag is mentioned; also called PAM-CD; rat PAM-CD; source: E. coli BL21(DE3), pET-11CD vector, purified
